Numbering of substitutions follows the chain as printed. Each block holds one binder with its values, some of them ahead of it.
T1: Atg23 (no tag named in the legend) (S. cerevisiae, UniProt Q06671 1-453)
T1 sequence (looked up): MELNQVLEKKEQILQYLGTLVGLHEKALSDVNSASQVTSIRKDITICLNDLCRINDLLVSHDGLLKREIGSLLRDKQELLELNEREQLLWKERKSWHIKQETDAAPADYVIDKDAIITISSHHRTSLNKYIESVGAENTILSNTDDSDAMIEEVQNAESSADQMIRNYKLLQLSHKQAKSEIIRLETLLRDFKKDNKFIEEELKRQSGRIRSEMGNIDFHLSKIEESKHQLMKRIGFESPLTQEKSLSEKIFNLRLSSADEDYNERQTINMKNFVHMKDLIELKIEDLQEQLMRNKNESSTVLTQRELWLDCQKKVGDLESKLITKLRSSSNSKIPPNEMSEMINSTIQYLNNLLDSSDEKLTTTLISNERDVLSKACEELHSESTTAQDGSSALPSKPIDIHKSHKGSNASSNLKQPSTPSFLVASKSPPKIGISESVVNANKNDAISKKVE

T2: FLAG-tagged Atg23 (S. cerevisiae, UniProt Q06671 1-453)
T2 sequence (looked up): T1 sequence (looked up)

T3: Atg23^Y16A_K42A_D43A_E380A mutant (S. cerevisiae, UniProt Q06671 1-453, Y16A | K42A | D43A | E380A)
T3 sequence (looked up): T1 sequence (looked up) with Y16A, K42A, D43A, E380A

B1: FLAG-tagged Atg9^NTR (domain or fragment, S. cerevisiae, UniProt Q12142 1-318, looked up)
chain: MERDEYQLPNSHGKNTFLSRIFGLQSDEVNPSLNSQEMSNFPLPDIERGSSLLHSTNDSREDVDENDLRVPESDQGTSTEEEDEVDEEQVQAYAPQISDGLDGDHQLNSVTSKENVLETEKSNLERLVEGSTDDSVPKVGQLSSEEEEDNEFINNDGFDDDTPLFQKSKIHEFSSKKSNTIEDGKRPLFFRHILQNNRPQRDTQKLFTSSNAIHHDKDKSANNGPRNINGNQKHGTKYFGSATQPRFTGSPLNNTNRFTKLFPLRKPNLLSNISVLNNTPEDRINTLSVKERALWKWANVENLDIFLQDVYNYYLGNG
B2: FLAG-tagged Atg9^CTR_S948D_S969D (domain or fragment, S. cerevisiae, UniProt Q12142 758-997, looked up)
chain: ENSEYVDGLGYVCKYAMFNMKNIDGEDTHSMDEDSLTKKIAVNGSHTLNSKRRSKFTAEDHSDKDLANNKMLQSYVYFMDDYSNSENLTGKYQLPAKKGYPNNEGDSFLNNKYSWRKQFQPGQKPELFRIGKHALGPGHNISPAIYSTRNPGKNWDNNNNGDDIKNGTNNATAKNDDNNGNNDHEYVLTEDFLDSGAFPNHDVIDHNKMLNDNYNGNGILNKGGVLGLVKEYYKKSDVGR
B3: Myc-Atg9^CTR_939-997-StrepII^2x (domain or fragment, S. cerevisiae, UniProt Q12142 939-997, looked up)
chain: NDHEYVLTESFLDSGAFPNHDVIDHNKMLNSNYNGNGILNKGGVLGLVKEYYKKSDVGR
B4: Myc-tagged Atg23 (natural protein, S. cerevisiae, UniProt Q06671 1-453, looked up)
chain: T1 sequence (looked up)
B5: untagged Atg23 (natural protein, S. cerevisiae, UniProt Q06671 1-453, looked up)
chain: T1 sequence (looked up)
B6: FLAG-tagged Atg9^CTR (domain or fragment, S. cerevisiae, UniProt Q12142 758-997, looked up)
chain: B2 chain with D191S, D212S
B7: FLAG-tagged Atg9^CTR_S948A_S969A (domain or fragment, S. cerevisiae, UniProt Q12142 758-997, looked up)
chain: B2 chain with D191A, D212A
B8: FLAG-tagged Atg9^CTR_Y989F_Y990F (domain or fragment, S. cerevisiae, UniProt Q12142 758-997, looked up)
chain: B2 chain with D191S, D212S, Y232F, Y233F

How the values were obtained:
untagged Atg23 = biological target: B5; assay: ITC
[1] = biological target: T1, Atg23 (no tag named in the legend); assay: pull-down
FLAG-tagged Atg9^CTR [2] = biological target: B6; assay: pull-down
FLAG-tagged Atg23 = biological target: T2, FLAG-tagged Atg23; assay: pull-down
mass photometry = biological target: the molecule itself; assay: mass photometry
FLAG-tagged Atg9^CTR [3] = biological target: B6; assay: ITC
FLAG-tagged Atg9^NTR = biological target: B1; assay: ITC
[4] = biological target: T3, Atg23^Y16A_K42A_D43A_E380A mutant; assay: pull-down
Myc-tagged Atg23 = biological target: B4; assay: pull-down

Binder: B1
Kd (untagged Atg23): 6.7 ± 1.2 µM

Binder: B2
binding result [1]: binds

binding result (FLAG-tagged Atg9^CTR [2]): binds
Binder: TRGGSFQDFRAEFIQRSTQFLTSLPEFCKEVVSRILGRSTAQRGGYSAV (domain or fragment, S. cerevisiae, UniProt P46989 223-271, looked up) [SUMO*-Atg27^CTR-StrepII^2x]

Binder: B3
binding result (FLAG-tagged Atg23): binds

Binder: B4
stoichiometry N (mass photometry): 2

Binder: B5
stoichiometry N (FLAG-tagged Atg9^CTR [3]): ~1
stoichiometry N (FLAG-tagged Atg9^NTR): ~1

Binder: B6
binding result [4]: binds
Kd (untagged Atg23): 0.54 ± 0.08 µM

Binder: B7
binding result (Myc-tagged Atg23): binds

Binder: B8
binding result (Myc-tagged Atg23): binds
